Like-named read-outs stand apart in the source and are kept apart here.
Key:
[1] = system: oral (buccal) mucosa cells (TR146); format: cell-based, human
Method: (§1) The protective effect of the recombinant lectin on survival of TR146 cells against 5-FU induced damage was determined using following calculations:
(§2) The viability of cells was determined as: % Cell viability=(100−% Cytotoxicity); • where, the percentage cytotoxicity corresponding to each treatment was calculated as: % Cytotoxicity=[(R−X)/R]*100, wherein X=Absorbance of cells treated with 5-FU or radiation damage/TI+5-FU, R=Absorbance of Control cells (Untreated) and Percentage protection was calculated as:
(§3) {(Absorbance of TI+5-FU or radiation)−(Absorbance of 5-FU or radiation alone)/(Absorbance of Untreated)−(Absorbance of 5-FU alone)}*100

[2] = system: 5-Fluorouracil induced OM; assay: Histopathology score of cheek pouch, 5-FU induced OM in hamsters; format: in vivo, golden Syrian hamsters; conditions: for Histopathology score, Mean: scale 1-5
Method: (§4) To induce OM, animals were administered (except normal control) 5-Fluorouracil (5-FU) by intraperitoneal route at doses of 60 mg/kg & 40 mg/kg respectively on first two days. On Day 4, under anesthesia, with aim of enhancing OM, mechanical irritation of the oral mucosa were done using wire brush. Treatment was initiated from Day 4 to Day 12. For group 3 animals 100 μl of vehicle comprising of standard drug Dexamethasone at 0.1 mg was instilled in buccal cheek pouch. For group 4, 5 and 6 animals 100 μl of vehicle comprising of SEQ ID NO. 2 at 0.25 mg, 0.5 mg & 1 mg, respectively was instilled in buccal cheek pouch. At the end of treatment period, cheek pouch of the hamsters was exposed, Mucositis scoring was carried out and images were captured. The animals were then humanely sacrificed, cheek pouch/jugular mucosa were isolated and used for biomarker estimation and histopathological investigation by using ELISA method and Hematoxylin and Eosin (H&E) staining, respectively.
For histopathology the oral mucosa tissues were sectioned 5 μm thickness and stained with hematoxylin-eosin staining. For study histopathological the sections were analyzed by light microscopy.
The pouch/jugular mucosa were observed and scored for infiltration of inflammatory cells, vasodilatation, presence of hemorrhagic areas, edema, ulcerations, and abscesses.

[3] = system: IL-12/IL-23p40; assay: Multiplex analysis, chemotherapy (5-FU), TR146; format: cell-based, human; conditions: for IL-12/IL-23p40 against chemotherapy induced levels: 5-FU, in words
Method: (§5) Oral buccal mucosal cells (TR146) cells were incubated overnight at 37° C. in 5% CO2 incubator. […] The cells were then stimulated with 5-FU (10 mM) for another 24h for chemotherapy and with gamma radiation (3.5 kGy) using Cobalt 60 for radiotherapy. After 24 h, cell culture supernatants were collected from each well and stored at −20° C. till multiplex analysis. For NF-kB estimations, cell lysates were prepared. Levels of biomarkers were estimated using Magpix® multiplex machine. The cells treated with Amifostine (along with 5-FU or radiation) were considered as positive control (PC). Untreated cells (5-FU or radiation alone treated) were used as negative control (NC).
(§6) The percent modulation in each sample was determined as follows:
(§7) [{Concentration of biomarkers (pg/ml) in Control cells (5-FU or radiation alone treated)−Concentration of biomarkers (pg/ml) in SEQ ID NO: 2+5-FU or radiation treated cells)}/Concentration of biomarkers (pg/ml) in Control cells (5-FU or radiation alone treated)]*100

[4] = system: TNF-α; assay: Multiplex analysis, chemotherapy (5-FU), TR146; format: cell-based, human; conditions: for TNF-α against chemotherapy induced levels: 5-FU, in words
Method: as §5, §6, §7

[5] = system: oral (buccal) mucosa cells (TR146); assay: Restoration of mitochondrial membrane potential (JC-1) against radiation induced damage; format: cell-based, human; conditions: for MMP: red/green JC-1 fluorescence ratio
Method: Oral buccal mucosal cells (TR146) were incubated overnight in 5% CO2 incubator at 37° C. for 24 h. […] After 24 h of treatment, cells were exposed to damage (5-FU 5 mM) for 1.25 h for chemotherapy induced inflammation and exposed to gamma radiation (3.5 kGy) using Cobalt 60 for radiation induced inflammation. After the exposure, the anti-apoptotic effect of SEQ ID NO 2 was determined by restoration of mitochondrial membrane depolarization by JC-1 staining and reduction in apoptotic cell populations (Annexin positive and subG0/G1 cells in cell cycle analysis).
After incubation, the supernatants were discarded and 100 μl of JC1-dye solution (prepared by diluting 1 mM DMSO stock into 10 μM in 1×PBS) was added to each well. The cells were then incubated with the dye in CO2 incubator at 37° C. for 15 min, after which the supernatant was removed, and the cells were washed twice with 1×PBS. 100 μl of 1×PBS was finally added to each well. Red fluorescence (excitation 550 nm, emission 600 nm) and green fluorescence (excitation 485 nm, emission 535 nm) were measured using Biotek Synergy HT plate reader. The mitochondrial membrane potential (Δψm) was calculated as the ratio of intensity of red fluorescence to intensity of green fluorescence.
The percentage increase/restoration in mitochondrial membrane potential (MMP) was calculated as: % Increase=[(R−X)/R]*100 • Where, X=Δψm corresponding to TI+5-FU treated cells or TI+radiation treated cells; R=Δψm corresponding to control cells (FU damaged or Radiation damaged alone)

[6] = Body weight change in 5-FU induced OM hamsters; format: in vivo, golden Syrian hamsters; conditions: Day 4 to Day 12, with respect to Day 4
Method: In-vivo experiments conducted in healthy golden Syrian hamsters wherein animals were grouped as below:
as §4
Body weight of each animal was recorded daily till the end of experiment. Percentage change in body weight of the animals was calculated by using formula with respect to Day 4.

[7] = system: oral (buccal) mucosa cells (TR146); assay: Cytoprotective effect against 5-FU induced damage (MTT); format: cell-based, human
Method: The cell viability was assessed by (MTT) assay and compared with positive control (Cells treated with Amifostine, EGCG and EGF and negative assay (untreated cells), wherein the control was the cells that underwent chemotherapy/radiotherapy.
as §1, §2, §3

[8] = 0.01 μg/ml + Radiation (3.5 kGy)
[9] = 100 μg/ml + Radiation (3.5 kGy)

B1: SEQ ID NO 2: recombinant lectin, variant of the S. rolfsii lectin amino acid sequence (reported as Rec-2 in WO 2010/095143) (protein)
chain: TYKITVRVYQTNPDAFFHPVEKTVWKYANGGTWTITDDQHVLTMGGSGTSGTLRFHADNGESFTATFGVHNYKRWCDIVTNLAADETGMVINQQYYSQKNREEARERQLSNYQVKNAKGRNFQIVYTEAEGNDLHANLIIG
% Protection [1, 8]: 2.5%
maximum cytoprotection ([1]; 0.01 μg/ml-25 μg/ml, radiation): 54.1%
% Protection ([1]; 0.1 μg/ml + Radiation (3.5 kGy)): 14.1%
% Protection ([1]; 1 μg/ml + Radiation (3.5 kGy)): 47.4%
% Protection ([1]; 10 μg/ml + Radiation (3.5 kGy)): 54.1%
% Protection ([1]; 25 μg/ml + Radiation (3.5 kGy)): 8.9%
Histopathology score, Mean ([2]; G4, 0.25 mg/Animal): 3
Histopathology score, Mean ([2]; G5, 0.5 mg/Animal): 2
Histopathology score, Mean ([2]; G6, 1 mg/Animal): 2.8
histology score as compared to the untreated subjects ([2]; hamsters suffering from OM, in words): reduction
Percentage Inhibition IL-12/IL-23p40 ([3]; 0.1 μg/ml + 5-FU (10 mM)): 13.5%
Percentage Inhibition IL-12/IL-23p40 ([3]; 10 μg/ml + 5-FU (10 mM)): 33.8%
Percentage Inhibition IL-12/IL-23p40 ([3]; 25 μg/ml + 5-FU (10 mM)): 36.8%
Percentage Inhibition IL-12/IL-23p40 ([3]; 50 μg/ml + 5-FU (10 mM)): 42.6%
Percentage Inhibition IL-12/IL-23p40 ([3]; 100 μg/ml + 5-FU (10 mM)): 36.6%
IL-12/IL-23p40 against chemotherapy induced levels [3]: lowering of levels
IL-12/IL-23p40 against chemotherapy induced levels ([3]; listed as test items): downregulation
Percentage Inhibition TNF-α ([4]; 0.1 μg/ml + 5-FU (10 mM)): 13.3%
Percentage Inhibition TNF-α ([4]; 10 μg/ml + 5-FU (10 mM)): 10%
Percentage Inhibition TNF-α ([4]; 25 μg/ml + 5-FU (10 mM)): 10%
Percentage Inhibition TNF-α ([4]; 50 μg/ml + 5-FU (10 mM)): 13.3%
Percentage Inhibition TNF-α ([4]; 100 μg/ml + 5-FU (10 mM)): 6.6%
TNF-α against chemotherapy induced levels [4]: lowering of levels
TNF-α against chemotherapy induced levels ([4]; listed as test items): downregulation
MMP [5, 8]: 5.76
% Increase in MMP (with respect to control) ([5]; 1 μg/ml + Radiation (3.5 kGy)): 36.6%
% Increase in MMP (with respect to control) ([5]; 10 μg/ml + Radiation (3.5 kGy)): 17.8%
MMP ([5]; 10 μg/ml + Radiation (3.5 kGy)): 5.43
MMP ([5]; 50 μg/ml + Radiation (3.5 kGy)): 6.29
% Increase in MMP (with respect to control) [5, 9]: 7.9%
MMP [5, 9]: 4.97
decrease of body weight ([6]; G4, 0.25 mg/Animal in buccal cheek pouch): 3.61%
decrease of body weight ([6]; G5, 0.5 mg/Animal in buccal cheek pouch): 4.36%
decrease of body weight ([6]; G6, 1 mg/Animal in buccal cheek pouch): 6.8%
cell viability against 5-FU induced cell damage [7]: 56.8-78.4%
% Protection ([7]; 1 μg/ml + 5-FU (5 mM)): 26%
% Protection ([7]; 10 μg/ml + 5-FU (5 mM)): 50.6%
% Protection ([7]; 25 μg/ml + 5-FU (5 mM)): 51%
% Protection ([7]; 50 μg/ml + 5-FU (5 mM)): 63%
% Protection ([7]; 100 μg/ml + 5-FU (5 mM)): 53%

Reference: patent publication US20250064890A1, “PROTEIN COMPOSITIONS FOR THE TREATMENT OF INFLAMMATORY DISEASES” (Unichem Laboratories Limited, priority 2021, published 2025)
